From the supplement of paper PMC7877785
± gives the uncertainty stated by the source.

Experiment: self-splicing fitness, log relative to wild type (ln ratio); higher = more splicing; Tetrahymena group I intron in knt gene, E. coli kanamycin selection, DiMSum; sequences stand for … in CUCUCU…GGAGGGAAAAGUUAUCAGGCAUGCACCUGGUAGCUAGUCUUUAAACCAAUAGAUUGCAUCGGUUUAAAAGGCAAGACCGUCAAAUUGCGGGAAAGGGGUCAACAGCCGUUCAGUACCAAGUCUCAGGGGAAACUUUGAGAUGGCCUUGCAAAGGGUAUGGUAAUAAGCUGACGGACAUGGUCCUAACCACGCAGCCAAGUCCUAAGUCAACAGAUCUUCUGUUGAUAUGGAUGCAGUUCACAGACUAAAUGUCGGUCGGGGAAGAUGUAUUCUUCUCAUAAGAUAUAGUCGGACCUCUCCUUAAUGGGAGCUAGCGGAUGAAGUGAUGCAACACUGGAGCCGCUGGGAACUAAUUUGUAUGCGAAAGUAUAUUGAUUAGUUUUGGAGUACUCGUGGUCG
How it was run: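 DiMSum derived fitness as the error-weighted combination of fold changes across replicates, kanamycin versus no kanamycin, normalised to wild type. E. coli BL21(DE3) held the library, which randomised all eight P1ex-region intron nucleotides within the knt kanamycin-resistance gene on pET-22b(+). Six replicate transformations grew overnight at 37°C or 30°C on LB agar with or without 25 μg/mL kanamycin, also containing 100 μg/mL carbenicillin, 50 μM IPTG and 0.2% rhamnose, and pooled colonies were amplicon-sequenced on an Illumina HiSeq 2500.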

| Sequence | self-splicing fitness (ln) (30 °C) | self-splicing fitness (ln) (37 °C) |
| --- | --- | --- |
| UUUGAGCAAUAUUACGUGAG | -1.35 ± 0.11 | 0.29 ± 0.14 |
| UUUGAGCAAUAUUACGUGCG |  | -1.29 ± 0.25 |
| UUUGAGCAAUAUUACGUGUA | -3.76 ± 0.35 | -2.78 ± 0.28 |
| UUUGAGCAAUAUUACGUUGC | -2.68 ± 0.34 | -2.29 ± 0.36 |
| UUUUAGCAAUAUUACGAAAC |  | -2.4 ± 0.49 |
| UUUUAGCAAUAUUACGAACA |  | -0.949 ± 0.48 |
| UUUUAGCAAUAUUACGAAUG | -1.04 ± 0.077 | -0.0853 ± 0.096 |
| UUUUAGCAAUAUUACGACCU |  | -1.36 ± 0.44 |
| UUUUAGCAAUAUUACGACGC | -2.17 ± 0.31 | -1.56 ± 0.28 |
| UUUUAGCAAUAUUACGAGAU |  | -1.25 ± 0.4 |
| UUUUAGCAAUAUUACGAUGA | 0.0426 ± 0.16 | -0.186 ± 0.2 |
| UUUUAGCAAUAUUACGAUGG | -1.32 ± 0.19 | -1.22 ± 0.2 |
| UUUUAGCAAUAUUACGCAAG | -1.08 ± 0.15 | -1.14 ± 0.21 |
| UUUUAGCAAUAUUACGCCCU | -2.16 ± 0.35 | -0.426 ± 0.28 |
| UUUUAGCAAUAUUACGGGUU |  | -2.26 ± 0.29 |
| UUUUAGCAAUAUUACGGUGU | -3.34 ± 0.38 |  |
| UUUUAGCAAUAUUACGGUUG | -1.77 ± 0.15 | -0.623 ± 0.23 |
| UUUUAGCAAUAUUACGUACU |  | 0.399 ± 0.37 |
| UUUUAGCAAUAUUACGUGUA | -2.96 ± 0.27 | -1.84 ± 0.17 |
